For data set [1], the target named is T1, Hpy188I restriction endonuclease (selenomethionine variant) (UniProt Q9KJ88 1-170).
T1 sequence: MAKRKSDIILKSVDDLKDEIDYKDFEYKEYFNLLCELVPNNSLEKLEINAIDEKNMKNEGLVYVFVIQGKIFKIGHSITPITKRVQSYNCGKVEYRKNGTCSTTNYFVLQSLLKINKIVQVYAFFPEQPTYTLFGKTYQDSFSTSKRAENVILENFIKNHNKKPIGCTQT
Put plainly: X-ray crystallography.

Data set [2] deals with T2, Hpy188I restriction endonuclease (native Met) (UniProt Q9KJ88 1-170).
T2 sequence: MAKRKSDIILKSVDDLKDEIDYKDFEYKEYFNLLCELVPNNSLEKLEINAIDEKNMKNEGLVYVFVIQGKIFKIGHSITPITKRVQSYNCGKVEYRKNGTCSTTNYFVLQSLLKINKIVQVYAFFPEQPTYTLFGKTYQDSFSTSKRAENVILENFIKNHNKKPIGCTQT
Put plainly: co-crystallization.

The target in data set [3] is T1, Hpy188I restriction endonuclease …. Put plainly: X-ray crystallography. This is another data set of the same source.

Like-named read-outs stand apart in the source and are kept apart here.

B1: 9-mer target oligoduplex cleaved in crystal at TCN|GA (product) (dsDNA)
DNA 1: GATCT
DNA 2: GAAC
DNA 3: GTTCA
DNA 4: GATC
With B1, the binding result in data set [1] is listed as “binds”.

B2: 9-mer target oligoduplex (uncleaved) (dsDNA)
DNA 1: GATCTGAAC
DNA 2: GTTCAGATC
B2: the binding result in data set [2] and in data set [3] was “binds” each time.

These data come from PMC3045582.
